In patent US20230181754A1 (BRIGHT PEAK THERAPEUTICS, published 2023):

Assays:
[1] = target: T1, recombinant biotinylated human Fc gamma receptor IIa (FcγRIIa/CD32a 167H) (human, UniProt P12318 36-218, limits assumed, biotinylated); test: AlphaLISA competition: free antibody competes with human IgG Fc on acceptor beads for biotinylated human FcγRIIa on streptavidin donor beads
T1 sequence (looked up): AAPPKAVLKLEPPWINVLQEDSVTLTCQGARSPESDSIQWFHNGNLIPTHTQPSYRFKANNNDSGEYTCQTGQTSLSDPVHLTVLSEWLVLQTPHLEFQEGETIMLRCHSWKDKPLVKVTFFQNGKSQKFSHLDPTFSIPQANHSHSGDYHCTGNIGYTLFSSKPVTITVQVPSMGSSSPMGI

[2] = target: T2, recombinant biotinylated human Fc gamma receptor I (FcγRI/CD64) (human, UniProt P12314 16-288, limits assumed, biotinylated); test: AlphaLISA competition: free antibody competes with human IgG Fc on acceptor beads for biotinylated human FcγRI on streptavidin donor beads
T2 construct: also called FcγR1
T2 sequence (P12314 16-288 limits assumed): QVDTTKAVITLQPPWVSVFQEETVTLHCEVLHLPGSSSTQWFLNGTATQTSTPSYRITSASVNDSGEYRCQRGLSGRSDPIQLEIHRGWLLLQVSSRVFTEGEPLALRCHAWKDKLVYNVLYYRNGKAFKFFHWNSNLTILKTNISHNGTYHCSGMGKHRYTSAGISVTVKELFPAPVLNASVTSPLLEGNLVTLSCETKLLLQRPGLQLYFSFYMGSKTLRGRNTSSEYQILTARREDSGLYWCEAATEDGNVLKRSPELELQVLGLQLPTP

B1: Durvalumab (unmodified anti-PD-L1 antibody) (antibody, human IgG1, kappa)
heavy: EVQLVESGGGLVQPGGSLRLSCAASGFTFSRYWMSWVRQAPGKGLEWVANIKQDGSEKYYVDSVKGRFTISRDNAKNSLYLQMNSLRAEDTAVYYCAREGGWFGELAFDYWGQGTLVTVSSASTKGPSVFPLAPSSKSTSGGTAALGCLVKDYFPEPVTVSWNSGALTSGVHTFPAVLQSSGLYSLSSVVTVPSSSLGTQTYICNVNHKPSNTKVDKRVEPKSCDKTHTCPPCPAPEFEGGPSVFLFPPKPKDTLMISRTPEVTCVVVDVSHEDPEVKFNWYVDGVEVHNAKTKPREEQYNSTYRVVSVLTVLHQDWLNGKEYKCKVSNKALPASIEKTISKAKGQPREPQVYTLPPSREEMTKNQVSLTCLVKGFYPSDIAVEWESNGQPENNYKTTPPVLDSDGSFFLYSKLTVDKSRWQQGNVFSCSVMHEALHNHYTQKSLSLSPGK
light: EIVLTQSPGTLSLSPGERATLSCRASQRVSSSYLAWYQQKPGQAPRLLIYDASSRATGIPDRFSGSGSGTDFTLTISRLEPEDFAVYYCQQYGSLPWTFGQGTKVEIKRTVAAPSVFIFPPSDEQLKSGTASVVCLLNNFYPREAKVQWKVDNALQSGNSQESVTEQDSKDSTYSLSSTLTLSKADYEKHKVYACEVTHQGLSSPVTKSFNRGEC
notes: also called Imfinzi; MEDI-4736
IC50 (read off the curve) [1]: ~400 nM | binding result [2]: binds
